Experiments:
Dmr1-His6 [1] = target: T1, Dmr1-His6 (Saccharomyces cerevisiae, UniProt P48237 27-864); experiment: footprinting; Dis3p 3'-5' exoribonuclease, 2 mM MgCl2; stop 3-5 nt downstream of (AUA)4AU; EMSA as in Puchta et al. 2010 (buffer not restated), 15 uL, up to 0.8 ug Dmr1p, BSA to constant protein, 0.2 ug tRNA; PNPase protection: 20 mM Tris-HCl pH 8.0; settings: protein: recombinant; tags: His6 (pET28a); label: 32P-UTP
T1 sequence: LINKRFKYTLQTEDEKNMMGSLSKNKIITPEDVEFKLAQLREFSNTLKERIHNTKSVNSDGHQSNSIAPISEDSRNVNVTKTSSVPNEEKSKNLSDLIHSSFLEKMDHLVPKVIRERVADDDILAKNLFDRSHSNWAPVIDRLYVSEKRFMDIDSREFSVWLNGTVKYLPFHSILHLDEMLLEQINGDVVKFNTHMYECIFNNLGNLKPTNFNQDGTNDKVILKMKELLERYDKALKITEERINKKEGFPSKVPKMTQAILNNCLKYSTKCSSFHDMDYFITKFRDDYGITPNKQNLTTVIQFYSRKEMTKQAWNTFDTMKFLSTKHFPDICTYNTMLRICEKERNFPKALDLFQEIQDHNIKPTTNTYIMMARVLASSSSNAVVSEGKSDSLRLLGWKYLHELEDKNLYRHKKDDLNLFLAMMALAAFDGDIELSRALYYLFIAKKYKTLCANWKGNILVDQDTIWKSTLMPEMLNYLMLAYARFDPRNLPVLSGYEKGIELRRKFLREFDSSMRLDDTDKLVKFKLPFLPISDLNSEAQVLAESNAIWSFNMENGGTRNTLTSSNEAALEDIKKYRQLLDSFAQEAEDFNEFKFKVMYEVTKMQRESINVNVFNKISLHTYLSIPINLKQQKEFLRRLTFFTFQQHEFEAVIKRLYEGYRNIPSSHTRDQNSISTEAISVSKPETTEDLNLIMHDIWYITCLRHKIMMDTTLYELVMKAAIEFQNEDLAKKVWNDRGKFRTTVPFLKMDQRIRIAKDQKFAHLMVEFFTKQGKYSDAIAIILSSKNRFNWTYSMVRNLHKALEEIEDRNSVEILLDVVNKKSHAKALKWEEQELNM

Dmr1-His6 [2] = target: T1, Dmr1-His6; experiment: nuclease protection; PNPase, 2 mM MgCl2; complete protection, from 0.1 ug protein; EMSA as in Puchta et al. 2010 (buffer not restated), 15 uL, up to 0.8 ug Dmr1p, BSA to constant protein, 0.2 ug tRNA; PNPase protection: 20 mM Tris-HCl pH 8.0; settings: protein: recombinant; tags: His6 (pET28a); label: 32P-UTP
[3] = target: T2, Dmr1p (Ccm1p), tag removed (Saccharomyces cerevisiae, UniProt P48237 27-864); experiment: EMSA; 0.2 ug tRNA; strong; EMSA as in Puchta et al. 2010 (buffer not restated), 15 uL, up to 0.8 ug Dmr1p, BSA to constant protein, 0.2 ug tRNA; PNPase protection: 20 mM Tris-HCl pH 8.0; settings: protein: recombinant; tags: none after TEV cleavage (from Dmr1-MBP-His6); label: 32P-UTP
T2 sequence: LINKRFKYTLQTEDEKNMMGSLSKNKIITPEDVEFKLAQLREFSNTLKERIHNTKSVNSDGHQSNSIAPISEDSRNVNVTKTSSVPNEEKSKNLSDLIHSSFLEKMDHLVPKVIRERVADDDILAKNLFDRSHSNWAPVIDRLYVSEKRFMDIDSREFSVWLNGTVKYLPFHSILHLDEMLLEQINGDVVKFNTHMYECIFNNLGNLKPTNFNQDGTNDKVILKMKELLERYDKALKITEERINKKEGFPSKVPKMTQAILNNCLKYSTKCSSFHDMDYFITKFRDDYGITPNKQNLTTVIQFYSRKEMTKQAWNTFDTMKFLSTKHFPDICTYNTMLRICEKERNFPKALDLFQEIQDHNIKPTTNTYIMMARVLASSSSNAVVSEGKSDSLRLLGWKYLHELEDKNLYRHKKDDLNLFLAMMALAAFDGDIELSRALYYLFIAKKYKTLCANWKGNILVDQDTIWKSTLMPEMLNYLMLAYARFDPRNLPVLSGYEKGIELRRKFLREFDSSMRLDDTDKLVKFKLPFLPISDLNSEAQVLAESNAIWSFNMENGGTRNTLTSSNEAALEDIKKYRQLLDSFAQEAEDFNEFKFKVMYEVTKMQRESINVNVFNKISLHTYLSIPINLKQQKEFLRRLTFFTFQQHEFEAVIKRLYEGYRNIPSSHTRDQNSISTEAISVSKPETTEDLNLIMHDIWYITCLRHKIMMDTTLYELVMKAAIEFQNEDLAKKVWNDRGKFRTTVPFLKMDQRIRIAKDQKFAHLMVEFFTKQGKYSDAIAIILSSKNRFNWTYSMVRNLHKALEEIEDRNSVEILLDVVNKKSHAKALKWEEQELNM

[4] = target: T2, Dmr1p (Ccm1p), tag removed; experiment: EMSA; 0.2 ug tRNA; EMSA as in Puchta et al. 2010 (buffer not restated), 15 uL, up to 0.8 ug Dmr1p, BSA to constant protein, 0.2 ug tRNA; PNPase protection: 20 mM Tris-HCl pH 8.0; settings: protein: recombinant; tags: none after TEV cleavage (from Dmr1-MBP-His6); label: 32P-UTP
Dmr1-His6 [5] = target: T1, Dmr1-His6; experiment: nuclease protection; PNPase, 2 mM MgCl2; not protected; EMSA as in Puchta et al. 2010 (buffer not restated), 15 uL, up to 0.8 ug Dmr1p, BSA to constant protein, 0.2 ug tRNA; PNPase protection: 20 mM Tris-HCl pH 8.0; settings: protein: recombinant; tags: His6 (pET28a); label: 32P-UTP
Dmr1-His6 [6] = target: T1, Dmr1-His6; experiment: nuclease protection; Terminator 5'-3' exonuclease, 2 mM MgCl2; partial; text calls it the 24 nt fragment, legend 15_14; EMSA as in Puchta et al. 2010 (buffer not restated), 15 uL, up to 0.8 ug Dmr1p, BSA to constant protein, 0.2 ug tRNA; PNPase protection: 20 mM Tris-HCl pH 8.0; settings: protein: recombinant; tags: His6 (pET28a); label: 32P-UTP

Question: Does GGAAAGAUGAAAUAAUAAUAAUAAUUAUAAGACUAAU (ssRNA) [15_35] bind (Dmr1-His6 [1])?
Answer: Result: binds

Question: Does GGUUAUAAUAAUAAUAAUAAUAAUAU (ssRNA) [20_24] bind (Dmr1-His6 [2])?
Answer: Result: binds

Question: Does GGUUAUAAUAAUAAUAAUAAUAAUAU (ssRNA) [20_24] bind [3]?
Answer: Result: binds

Question: Does GGAAAAGGAUAUAUAUAUAAUAUAUA (ssRNA) [N_24] bind [4]?
Answer: Result: no binding

Question: Does GGAAAAGGAUAUAUAUAUAAUAUAUA (ssRNA) [N_24] bind (Dmr1-His6 [5])?
Answer: Result: no binding

Question: Does GGUAUAUAUAUAAUAU (ssRNA) [N_14] bind [4]?
Answer: Result: no binding

Question: Does GGAUAAUAAUAAUAAU (ssRNA, 5' monophosphate (polyphosphatase treated)) [15_14 5'-monophosphate] bind (Dmr1-His6 [6])?
Answer: Result: binds

Question: Does GGAAAUAAUAAUAAUAAUUAUAAGAC (ssRNA) [15_24] bind [4]?
Answer: Result: binds

Question: Does GGAUAAUAAUAAUAAU (ssRNA) [15_14] bind [4]?
Answer: Result: binds

— publication PMC7430664, “Yeast pentatricopeptide protein Dmr1 (Ccm1) binds a repetitive AU-rich motif in the small subunit mitochondrial ribosomal RNA”
